Here are results for two molecules from publication PMC5356885 (Oncotarget, 2016).

This assay addresses T1, recombinant CaM for NMR (pETM11-CaM, tag cleaved) (UniProt P62149 1-149).
T1 construct: also called ^14N-CaM; ^15N-CaM
The experiment in a line: NMR titration. As to conditions: both partners purified.

B1: histidine-tagged recombinant v-Myc bHLH-LZ fragment for NMR (131-amino acid construct, S314-A416) (domain or fragment)
chain: SNNRKCSSPRTLDSEENDKRRTHNVLERQRRNELKLRFFALRDQIPEVANNEKAPKVVILKKATEYVLSLQSDEHKLIAEKEQLRRRREQLKHNLEQLRNSRA
On to B1, for which the binding result is given as “binds”.

B2: tag-free Myc (v-Myc bHLH-LZ fragment without the histidine tag) (domain or fragment)
chain: SNNRKCSSPRTLDSEENDKRRTHNVLERQRRNELKLRFFALRDQIPEVANNEKAPKVVILKKATEYVLSLQSDEHKLIAEKEQLRRRREQLKHNLEQLRNSRA
modifications: ^15N-labelled
As to B2, the binding result is listed as “binds”.
